{"source": "paper PMC3597688", "about": "(Nucleic Acids Research, 2013)", "proteins": {"B1": {"name": "ssoMCM F540A mutant (full length) (natural protein, Sulfolobus solfataricus, UniProt Q9UXG1 1-686, looked up)", "chain": "MEIPSKQIDYRDVFIEFLTTFKGNNNQNKYIERINELVAYRKKSLIIEFSDVLSFNENLAYEIINNTKIILPILEGALYDHILQLDPTYQRDIEKVHVRIVGIPRVIELRKIRSTDIGKLITIDGILVKVTPVKERIYKATYKHIHPDCMQEFEWPEDEEMPEVLEMPTICPKCGKPGQFRLIPEKTKLIDWQKAVIQERPEEVPSGQLPRQLEIILEDDLVDSARPGDRVKVTGILDIKQDSPVKRGSRAVFDIYMKVSSIEVSQKVLDEVIISEEDEKKIKDLAKDPWIRDRIISSIAPSIYGHWELKEALALALFGGVPKVLEDTRIRGDIHILIIGDPGTAKSQMLQFISRVAPRAVYTTGKGSTAAGLTAAVVREKGTGEYYLEAGALVLADGGIAVIDEIDKMRDEDRVAIHEAMEQQTVSIAKAGIVAKLNARAAVIAAGNPKFGRYISERPVSDNINLPPTILSRFDLIFILKDQPGEQDRELANYILDVHSGKSTKNIIDIDTLRKYIAYARKYVTPKITSEAKNLITDFAVEMRKKSSETPDSPILITPRQLEALIRISEAYAKMALKAEVTREDAERAINIMRLFLESVGVDMESGKIDIDTIMTGKPKSAREKMMKIIEIIDSLAVSSECAKVKDILKEAQQVGIEKSNIEKLLTDMRKSGIIYEAKPECYKKV"}, "B2": {"name": "ssoMCM G485P/G501P mutant (alpha5-linker mutant, full length) (natural protein, Sulfolobus solfataricus, UniProt Q9UXG1 1-686, looked up)", "chain": "B1 chain with G485P, G501P, A540F"}}, "key": {"[1]": {"target": "the molecule itself", "test": "SEC"}, "[2]": {"target": "the molecule itself", "test": "negative-stain electron microscopy and electron tomography"}}, "note": "Residue numbers refer to the chain shown, from its start. Names and notes keep the numbering of the source. Values joined by “and” are separate entries in the source; they are usually repeats but may differ in a detail not shown here. Equal entries are not always repeated.", "data": [{"protein": "B1", "values": [{"measurement": "stoichiometry N", "setting": "[1]", "value": "~3"}, {"measurement": "stoichiometry N", "setting": "[2]", "value": "6 and 8"}]}, {"protein": "B2", "values": [{"measurement": "stoichiometry N", "setting": "[1]", "value": "~3"}]}]}
